The target in assay [1] is human plasma kallikrein (active form, purified from human plasma and activated with factor XIIa) (human) (UniProt P03952). Put plainly: ELISA, target/background. A general note: An ELISA detects its analyte on a solid surface through an enzyme-linked reagent.
For assay [2], the target named is pKal catalytic domain Mutant 4 (human) (UniProt P03952). As to the kind of experiment: Ki,app, equilibrium, fluorogenic substrate.
pKal catalytic domain Mutant 4 (human), sequence (P03952 other isoform, or with tags, fused parts or gaps mutant): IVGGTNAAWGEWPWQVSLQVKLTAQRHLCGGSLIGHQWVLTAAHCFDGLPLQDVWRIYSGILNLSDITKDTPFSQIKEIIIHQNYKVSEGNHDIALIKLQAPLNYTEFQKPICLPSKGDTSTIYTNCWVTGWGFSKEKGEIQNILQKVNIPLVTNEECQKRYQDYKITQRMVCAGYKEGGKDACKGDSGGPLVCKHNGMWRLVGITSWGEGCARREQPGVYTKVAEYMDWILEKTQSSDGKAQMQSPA

human plasma kallikrein (active form, purified from human plasma and activated with factor XIIa) (human), sequence (P03952 20-390 limits assumed, chain 1 of 2): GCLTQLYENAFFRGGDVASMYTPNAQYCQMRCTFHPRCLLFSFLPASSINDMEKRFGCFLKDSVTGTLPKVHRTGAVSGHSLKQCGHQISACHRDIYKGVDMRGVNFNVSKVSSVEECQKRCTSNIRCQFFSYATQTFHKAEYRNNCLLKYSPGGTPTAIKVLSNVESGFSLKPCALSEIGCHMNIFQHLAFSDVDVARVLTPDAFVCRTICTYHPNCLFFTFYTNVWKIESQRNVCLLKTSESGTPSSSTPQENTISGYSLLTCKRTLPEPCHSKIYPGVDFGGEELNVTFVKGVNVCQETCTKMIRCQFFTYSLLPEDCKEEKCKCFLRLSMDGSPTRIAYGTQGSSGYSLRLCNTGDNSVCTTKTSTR
human plasma kallikrein (active form, purified from human plasma and activated with factor XIIa) (human), sequence (P03952 391-638 limits assumed, chain 2 of 2): as the sequence (P03952 other isoform, or with tags, fused parts or gaps mutant) above, with A7S, A8S counted along it

B1: M29-E02 (Fab, V domains shown)
VH: EVQLLESGGGLVQPGGSLRLSCAASGFTFSRYPMMWVRQAPGKGLEWVSVIYPSGGDTFYADSVKGRFTISRDNSKNTLYLQMNSLRAEDTAVYYCASGDDYLWEAAVYWGQGTLVTVSS
VL: QSVLTQPPSVSEAPRQRVTISCSGSSSNIGNNAVSWYQQLPGKAPKLLIYYDDLLPSGVSDRFSGSKSGTSASLAISGLRSEDEADYYCAAWDDSLNGFVFGTGTKVTVL
On to B1, for which the ELISA (T/B) in assay [1] stood at 2.

B2: X101-A01 (antibody, V domains shown)
VH: EVQLLESGGGLVQPGGSLRLSCAASGFTFSHYLMTWVRQAPGKGLEWVSYISPSGGHTIYADSVKGRFTISRDNSKNTLYLQMNSLRAEDTAVYYCARVARGIAARSRTSYFDYWGQGTLVTVSS
VL: EIVLTQSPGTLSLSPGERATLSCRTSQFVNSNYLAWYQQKPGQAPRLLIYGASSRATGIPDRFSGSGSGTDFTLTISRLEPEDFAVYYCQQSSRTPWTFGQGTKVEIK
Regarding B2, in assay [2], the Ki came to 0.25 nM.

B3: M28-F01 (Fab, V domains shown)
VH: EVQLLESGGGLVQPGGSLRLSCAASGFTFSVYLMHWVRQAPGKGLEWVSGISPSGGYTQYADSVKGRFTISRDNSKNTLYLQMNSLRAEDTAVYYCARPGGLDAFDIWGQGTMVTVSS
VL: DIQMTQSPSSLSASVGDRVTITCRASQSINTYLNWYQQKPGKAPKVLIHAASTLESGVPSRFSGSGSGTDFTLTISSLQPEDFATYYCQQSYSTPPTFGQGTKVEIK
B3 had an ELISA (T/B) in assay [1] of 1.5.

Source of the values: patent publication US10336832.
